Laboratory results: the supplement of paper PMC12042874
± gives the uncertainty stated by the source.

Assay: amyloid nucleation score (Sup35N fusion, yeast selection) (log enrichment); library NNK1; higher = more nucleation; inactive = no reads after selection
In short: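 DiMSum was used to calculate nucleation scores as log enrichment of output over input reads, centred on the mode score of non-aggregating sequences. Sequences with fewer than 100 input reads were not scored. Input and output came from Illumina sequencing of plasmid inserts in psi-negative yeast expressing peptides of 20 random codons fused to Sup35N, induced 24 hours with 100 μM copper sulfate and then grown 7 days at 30°C on medium lacking adenine and uracil.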

Point of comparison: AVFIGCVNAGS, amyloid nucleation score 0.621 ± 0.39. Against it:
- KFIIVLILDCITIHHSVVVS — lower, -0.819 ± 0.67
- VCSSLFSSCPL — within error, 0.735 ± 0.37
- LVWILHVSSVNNHVDWGMLE — within error, -1.64 ± 2.4
- RHLMLVKYVFGSRELGL — within error, 0.169 ± 0.25
- TWVMFDVWGRVDYER — within error, 0.169 ± 0.4
- MRYIKSVVSSVCSYNLPLRA — within error, 0.525 ± 0.44
- RNGCKFTKLFETVRFKEEGF — lower, -1.03 ± 0.48
- MPGSTLLSAKMTSLGGTALW — within error, 0.392 ± 0.4
- TWGRVFSLMAPFISRPCFWG — lower, -0.385 ± 0.34
- IGGHRYGVDKY — within error, -0.194 ± 0.72
- SKSRMLPIGTRGCRNSQFVE — within error, 1.06 ± 0.63
- ITNCEAEEPDCWPDE — lower, -0.357 ± 0.35
- RGCMAQDSNLYKHVSARTGD — within error, -0.179 ± 1.6
- PLHCSVGRIRSGLMCLKLTC — within error, -0.17 ± 1.1
- FEGNQDIYMVRTWKDKMRLV — within error, -0.107 ± 0.45
- YATTD — lower, -0.776 ± 0.58
- NFSFLGFLSRYGCLFQVSS — within error, 0.582 ± 0.6
- HNIKVAGQMYANKSRICTSM — within error, 0.412 ± 0.47
- GGDSQCVLTGFWYCSTWGKG — higher, 6.438 ± 0.056
- HVGRIPGEVYSLKFTGLGRY — lower, -0.839 ± 0.95
- CFLYNSFYILDISELLQGST — higher, 4.81 ± 0.049
- ILFFDVSSQGRTEDKVRNLG — within error, 0.088 ± 0.69
- DDKIVRIEDSMAASNIAFLA — within error, 0.371 ± 0.32
- VGSLGM — lower, -0.221 ± 0.37
- CKRWRSILVKSSRSIMGTDV — within error, -0.171 ± 1.1
- SVPMMSML — within error, 0.019 ± 0.25
- SNTICQVGASREEPSCGTQW — within error, 1.14 ± 0.97
- NNLMFNYSGHMVSVKAHSSG — within error, 0.776 ± 0.43
- YGLSSGFLYADLEDVPALLW — within error, 0.681 ± 0.45
- FFPTEYHALENLLHADVRVK — lower, -0.682 ± 0.36
- LNFFVPA — within error, -1.38 ± 2.4
- TPAFTIFSWAIGEDYLFVEM — within error, 0.777 ± 0.9
- MREDIAFDFW — higher, 4.22 ± 0.15
- NFKQGNSYVCNSCLGCGVSR — higher, 6.45 ± 0.084
- MLSVRTGISGLQSVRTKALA — lower, -0.33 ± 0.51
- FSYTDNSTRFVTFQLRNIPA — within error, 0.598 ± 0.33
- SRKCGDVCSKDGRPVCPGTE — higher, 1.67 ± 0.15
- YNTRTRILWARVVNRVINLW — higher, 4.95 ± 0.072
- PFVYLVYCGNGNVFAAKYLS — higher, 6.217 ± 0.059
- VSGDPNMRLCAISIATGFVF — lower, -0.468 ± 0.63
- FLCSIISYS — higher, 5.572 ± 0.048
- NNQHDGYSIFILDRQPLRAM — within error, 0.488 ± 0.59
- PNFMMIWWVSTLRHNFTGLC — higher, 2.19 ± 0.31
- KNPRGENIFLPCLRMGKHLL — within error, -0.776 ± 1.9
- WYVLARGMYENTLVGSCSMV — higher, 6.13 ± 0.088
- IFRMAPKQCPSLWVASPHWI — within error, 0.743 ± 0.55
- QEGRSFRGYTMVKYVFISRY — within error, 1.38 ± 0.5
- VSIRTGGTCHYT — within error, 0.123 ± 0.28
- TSVDVFS — within error, 0.656 ± 0.62
- DYTILYVVWILCGIKMSVVI — within error, 0.699 ± 0.66
- DIALMWLLLVHRDYT — lower, -1.07 ± 0.76
- MNPTFILRTGSRGGDYWS — within error, 0.206 ± 0.52
- HQNRDIIMMMSFCAGNTGYK — higher, 4.98 ± 0.12
- LAQSGIDIYLRKGMDARKMR — lower, -0.516 ± 0.32
- IIIEVSQTDTV — within error, -0.292 ± 0.79
- PFRGDGIGYISVGGWFVQDN — within error, -1.51 ± 2.4
- YDLGMLLF — within error, 0.812 ± 0.77
- HQVNSGDLSNMVLCLMLIRW — higher, 1.84 ± 0.19
- LFLHPMYMMKAASASGITVV — within error, -0.1 ± 0.57
- CCHRGCGAFVGWMHQFGWYI — within error, -0.186 ± 0.42
- VHGGAWLTGGSRTGAQFIAV — lower, -0.402 ± 0.59
- YVVNGYSICGFDAEVIVLQL — within error, 1.19 ± 0.18
- HDREDWGDQSWYFILAWIFK — lower, -0.745 ± 0.44
- PAYGTNIVAIYLWH — higher, 3.59 ± 0.093
- GLSWYCGHLAKR — within error, 1.48 ± 0.49
- RKGSMWFCRCLVRMRHRALP — within error, -0.295 ± 0.76
- PGCIICRVMTEANSRCLVRA — within error, 0.141 ± 1.2
- SWIHVHHL — within error, 0.691 ± 0.7
- CQELYLKFVVENFSTFLRNH — lower, -2.68 ± 2.7
- LVMFEIKLMRFNFTMRSVRR — higher, 2.91 ± 0.13
- GVCKTYSIDKAPI — within error, 0.823 ± 0.51
- NDNGVMLVLCEGMY — within error, 0.014 ± 0.32
- TKIRCDRWTLYIKGITYRAL — within error, 0.86 ± 1.1

With YSFRGEHSTLCLDNVVKSFQ the amyloid nucleation score was “inactive”.
For DLYEAMSRNLADYRAVWGLS, the amyloid nucleation score was “inactive”.
For SPLFLVWLTCYKQDPFILVW, the amyloid nucleation score was “inactive”.
In the case of GLPLNA, the amyloid nucleation score is reported as “inactive”.
For DWPMELLASYMTPMLVTRV, the amyloid nucleation score was “inactive”.
With GKSLLKSYCIRMPLFSRNTL the amyloid nucleation score was “inactive”.
With MPTLNYIVKCSREVTGGILD the amyloid nucleation score was “inactive”.
In the case of KHSPSDYPERLHHNFYIERI, the amyloid nucleation score is reported as “inactive”.
With DHITKHFIGV the amyloid nucleation score was “inactive”.
For GNRGSSKV, the amyloid nucleation score was “inactive”.
